Experimental data published in patent US20250076311A1 (Chugai, published 2025).
Substitutions are numbered along the chain they refer to. Names and notes keep the numbering of the source.

T1: human FcγRIIaR extracellular domain, His-tagged (human, UniProt P12318 34-217)
T1 construct: also called human FcgRIIaR; FcγRIIa type R
T1 chain: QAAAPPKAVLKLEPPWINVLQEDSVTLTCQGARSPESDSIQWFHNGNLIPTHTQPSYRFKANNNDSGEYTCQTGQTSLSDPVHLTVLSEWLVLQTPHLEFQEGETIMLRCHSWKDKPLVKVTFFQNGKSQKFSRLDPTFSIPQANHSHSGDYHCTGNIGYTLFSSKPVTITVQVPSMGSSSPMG

T2: human FcγRIIaH extracellular domain, His-tagged (human, UniProt P12318 34-217)
T2 construct: also called human FcgRIIaH; FcγRIIa type H
T2 sequence: T1 chain with R134H

T3: human FcγRIIb extracellular domain, His-tagged (human, UniProt P31994 43-217)
T3 construct: also called human FcgRIIb
T3 sequence: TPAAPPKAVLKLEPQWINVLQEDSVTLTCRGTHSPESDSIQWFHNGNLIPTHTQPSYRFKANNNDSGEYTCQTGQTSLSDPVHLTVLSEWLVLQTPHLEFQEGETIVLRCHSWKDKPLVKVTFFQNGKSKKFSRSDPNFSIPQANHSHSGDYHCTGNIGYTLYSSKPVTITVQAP

B1: GpH7-B3 L234Y / GpL16-k0 (antibody, human IgG1, kappa)
heavy: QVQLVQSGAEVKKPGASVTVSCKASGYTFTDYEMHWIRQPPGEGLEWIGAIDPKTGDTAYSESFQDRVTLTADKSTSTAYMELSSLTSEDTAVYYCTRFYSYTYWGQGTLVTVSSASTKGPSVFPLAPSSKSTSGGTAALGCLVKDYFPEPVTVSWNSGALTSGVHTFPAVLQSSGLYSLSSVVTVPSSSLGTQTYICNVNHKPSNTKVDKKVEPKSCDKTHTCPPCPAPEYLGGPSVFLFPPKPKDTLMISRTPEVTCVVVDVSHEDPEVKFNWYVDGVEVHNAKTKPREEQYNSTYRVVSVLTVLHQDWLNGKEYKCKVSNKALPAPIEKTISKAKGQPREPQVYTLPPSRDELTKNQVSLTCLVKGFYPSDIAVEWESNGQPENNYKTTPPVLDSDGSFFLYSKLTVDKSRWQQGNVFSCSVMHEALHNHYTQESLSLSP
light: DIVMTQSPLSLPVTPGEPASISCQASESLVHSNRNTYLHWYLQKPGQSPQLLIYKVSNRFSGVPDRFSGSGSGTDFTLKISRVEAEDVGVYYCSQNTHVPPTFGQGTKVEIERTVAAPSVFIFPPSDEQLKSGTASVVCLLNNFYPREAKVQWKVDNALQSGNSQESVTEQDSKDSTYSLSSTLTLSKADYEKHKVYACEVTHQGLSSPVTKSFNRGEC
notes: also called B3 variant L234Y
B2: GpH7-B3 K334I / GpL16-k0 (antibody, human IgG1, kappa)
heavy: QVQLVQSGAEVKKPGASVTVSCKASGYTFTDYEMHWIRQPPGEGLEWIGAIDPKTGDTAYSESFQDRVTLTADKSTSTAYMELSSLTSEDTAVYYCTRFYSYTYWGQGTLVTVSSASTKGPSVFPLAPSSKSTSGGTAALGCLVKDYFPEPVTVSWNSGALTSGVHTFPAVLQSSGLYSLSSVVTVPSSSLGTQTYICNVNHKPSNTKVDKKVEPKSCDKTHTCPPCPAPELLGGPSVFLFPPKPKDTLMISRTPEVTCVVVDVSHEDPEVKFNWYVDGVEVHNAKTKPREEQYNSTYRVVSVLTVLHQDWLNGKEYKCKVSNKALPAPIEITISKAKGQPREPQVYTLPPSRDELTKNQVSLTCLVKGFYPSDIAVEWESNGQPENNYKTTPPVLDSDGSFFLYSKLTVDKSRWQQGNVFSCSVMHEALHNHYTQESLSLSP
light: B1 light
notes: also called B3 variant K334I
B3: GpH7-B3 Q295L / GpL16-k0 (antibody, human IgG1, kappa)
heavy: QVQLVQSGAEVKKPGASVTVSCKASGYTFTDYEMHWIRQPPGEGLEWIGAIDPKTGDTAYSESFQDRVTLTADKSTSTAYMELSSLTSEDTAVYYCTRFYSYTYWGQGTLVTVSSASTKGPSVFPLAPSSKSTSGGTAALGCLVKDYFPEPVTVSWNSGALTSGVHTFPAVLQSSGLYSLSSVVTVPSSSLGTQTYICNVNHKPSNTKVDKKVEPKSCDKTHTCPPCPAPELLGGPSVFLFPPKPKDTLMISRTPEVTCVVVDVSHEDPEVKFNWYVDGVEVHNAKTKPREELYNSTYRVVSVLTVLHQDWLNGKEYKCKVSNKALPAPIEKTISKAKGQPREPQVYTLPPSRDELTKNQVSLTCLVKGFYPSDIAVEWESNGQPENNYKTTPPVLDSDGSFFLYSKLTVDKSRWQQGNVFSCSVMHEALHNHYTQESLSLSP
light: B1 light
notes: also called B3 variant Q295L
B4: GpH7-B3 S239I / GpL16-k0 (antibody, human IgG1, kappa)
heavy: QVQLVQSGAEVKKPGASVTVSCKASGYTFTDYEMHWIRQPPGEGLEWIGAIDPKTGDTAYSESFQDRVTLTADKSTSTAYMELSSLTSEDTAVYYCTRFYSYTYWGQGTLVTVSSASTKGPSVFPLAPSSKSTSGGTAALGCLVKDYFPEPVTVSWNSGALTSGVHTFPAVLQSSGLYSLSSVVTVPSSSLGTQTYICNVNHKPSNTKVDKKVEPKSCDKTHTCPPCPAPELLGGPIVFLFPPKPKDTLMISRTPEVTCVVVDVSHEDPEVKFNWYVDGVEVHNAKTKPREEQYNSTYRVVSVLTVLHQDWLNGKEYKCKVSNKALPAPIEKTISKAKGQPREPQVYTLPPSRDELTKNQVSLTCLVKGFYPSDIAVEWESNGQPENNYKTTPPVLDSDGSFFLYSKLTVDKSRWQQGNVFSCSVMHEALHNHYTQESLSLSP
light: B1 light
notes: also called B3 variant S239I
B5: GpH7-B3 S239V / GpL16-k0 (antibody, human IgG1, kappa)
heavy: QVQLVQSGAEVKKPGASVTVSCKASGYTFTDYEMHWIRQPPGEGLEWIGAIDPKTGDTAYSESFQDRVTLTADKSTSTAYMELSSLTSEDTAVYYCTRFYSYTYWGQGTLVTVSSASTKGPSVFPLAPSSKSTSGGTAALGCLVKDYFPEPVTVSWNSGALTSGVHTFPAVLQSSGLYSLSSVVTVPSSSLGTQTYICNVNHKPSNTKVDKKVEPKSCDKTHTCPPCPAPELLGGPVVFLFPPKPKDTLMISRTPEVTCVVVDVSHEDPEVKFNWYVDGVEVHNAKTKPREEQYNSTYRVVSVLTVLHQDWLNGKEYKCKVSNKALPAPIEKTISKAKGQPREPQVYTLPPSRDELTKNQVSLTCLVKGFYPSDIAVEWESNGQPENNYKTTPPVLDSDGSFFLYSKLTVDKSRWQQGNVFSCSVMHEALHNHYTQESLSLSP
light: B1 light
notes: also called B3 variant S239V
B6: GpH7-B3 S267A / GpL16-k0 (antibody, human IgG1, kappa)
heavy: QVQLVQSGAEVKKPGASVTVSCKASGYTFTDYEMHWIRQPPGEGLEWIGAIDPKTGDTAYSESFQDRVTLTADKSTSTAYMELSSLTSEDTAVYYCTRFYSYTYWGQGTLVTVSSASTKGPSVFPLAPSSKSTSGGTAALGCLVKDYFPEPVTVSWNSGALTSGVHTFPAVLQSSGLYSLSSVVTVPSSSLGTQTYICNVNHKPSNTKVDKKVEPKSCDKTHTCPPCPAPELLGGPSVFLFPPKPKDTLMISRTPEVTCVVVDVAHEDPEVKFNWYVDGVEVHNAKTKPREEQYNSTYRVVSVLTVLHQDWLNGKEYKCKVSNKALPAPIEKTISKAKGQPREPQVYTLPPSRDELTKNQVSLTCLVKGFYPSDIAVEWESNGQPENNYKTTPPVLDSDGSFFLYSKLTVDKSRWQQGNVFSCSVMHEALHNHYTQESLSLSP
light: B1 light
notes: also called B3 variant S267A
B7: GpH7-B3 S239N / GpL16-k0 (antibody, human IgG1, kappa)
heavy: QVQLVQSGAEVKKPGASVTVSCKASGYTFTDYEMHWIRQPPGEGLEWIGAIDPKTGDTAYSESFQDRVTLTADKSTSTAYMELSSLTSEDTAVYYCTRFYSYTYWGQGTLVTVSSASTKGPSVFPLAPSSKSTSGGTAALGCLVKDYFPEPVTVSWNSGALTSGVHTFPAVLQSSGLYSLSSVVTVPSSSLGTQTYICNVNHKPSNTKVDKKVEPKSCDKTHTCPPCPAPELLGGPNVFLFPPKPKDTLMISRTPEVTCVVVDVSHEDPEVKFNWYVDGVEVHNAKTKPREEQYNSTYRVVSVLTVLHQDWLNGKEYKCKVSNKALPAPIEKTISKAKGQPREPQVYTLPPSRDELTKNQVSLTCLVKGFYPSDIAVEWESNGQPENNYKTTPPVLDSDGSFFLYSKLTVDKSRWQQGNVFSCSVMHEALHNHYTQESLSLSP
light: B1 light
notes: also called B3 variant S239N
B8: GpH7-B3 L235W / GpL16-k0 (antibody, human IgG1, kappa)
heavy: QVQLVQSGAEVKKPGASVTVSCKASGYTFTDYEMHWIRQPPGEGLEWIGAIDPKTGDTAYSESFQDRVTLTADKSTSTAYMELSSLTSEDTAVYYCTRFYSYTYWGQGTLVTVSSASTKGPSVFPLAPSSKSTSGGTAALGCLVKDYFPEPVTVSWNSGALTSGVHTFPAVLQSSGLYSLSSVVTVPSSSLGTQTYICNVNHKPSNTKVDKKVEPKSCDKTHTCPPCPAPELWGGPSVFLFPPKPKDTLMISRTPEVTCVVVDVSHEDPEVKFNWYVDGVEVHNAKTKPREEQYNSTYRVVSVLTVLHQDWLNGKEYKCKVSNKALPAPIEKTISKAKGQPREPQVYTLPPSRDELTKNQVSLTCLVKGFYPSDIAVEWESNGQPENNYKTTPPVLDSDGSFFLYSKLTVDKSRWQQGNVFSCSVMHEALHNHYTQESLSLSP
light: B1 light
notes: also called B3 variant L235W
B9: GpH7-B3 P271G / GpL16-k0 (antibody, human IgG1, kappa)
heavy: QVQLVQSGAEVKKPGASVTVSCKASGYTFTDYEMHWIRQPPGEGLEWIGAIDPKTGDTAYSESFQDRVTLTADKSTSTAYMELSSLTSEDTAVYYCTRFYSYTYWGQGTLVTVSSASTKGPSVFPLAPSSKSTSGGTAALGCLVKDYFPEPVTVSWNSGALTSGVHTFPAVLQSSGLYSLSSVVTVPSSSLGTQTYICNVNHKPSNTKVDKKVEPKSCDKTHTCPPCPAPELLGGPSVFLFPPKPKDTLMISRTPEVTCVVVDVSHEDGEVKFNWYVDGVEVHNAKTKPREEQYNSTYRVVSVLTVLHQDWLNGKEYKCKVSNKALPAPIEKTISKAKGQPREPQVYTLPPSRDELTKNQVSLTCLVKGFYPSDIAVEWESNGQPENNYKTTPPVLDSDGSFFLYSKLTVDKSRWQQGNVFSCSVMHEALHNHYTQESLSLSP
light: B1 light
notes: also called B3 variant P271G
B10: GpH7-B3 S298L / GpL16-k0 (antibody, human IgG1, kappa)
heavy: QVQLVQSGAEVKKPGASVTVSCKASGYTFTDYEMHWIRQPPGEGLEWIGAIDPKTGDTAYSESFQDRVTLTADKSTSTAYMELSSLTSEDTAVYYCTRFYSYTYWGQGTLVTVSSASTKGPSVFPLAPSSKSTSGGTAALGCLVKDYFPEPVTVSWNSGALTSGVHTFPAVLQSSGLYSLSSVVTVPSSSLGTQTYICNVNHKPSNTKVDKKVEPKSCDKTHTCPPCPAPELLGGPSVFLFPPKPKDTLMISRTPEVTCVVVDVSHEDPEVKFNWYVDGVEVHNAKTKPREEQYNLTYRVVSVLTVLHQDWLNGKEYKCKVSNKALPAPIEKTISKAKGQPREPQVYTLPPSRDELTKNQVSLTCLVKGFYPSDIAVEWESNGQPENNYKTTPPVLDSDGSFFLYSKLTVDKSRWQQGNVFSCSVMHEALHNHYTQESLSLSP
light: B1 light
notes: also called B3 variant S298L
B11: GpH7-B3 P331E / GpL16-k0 (antibody, human IgG1, kappa)
heavy: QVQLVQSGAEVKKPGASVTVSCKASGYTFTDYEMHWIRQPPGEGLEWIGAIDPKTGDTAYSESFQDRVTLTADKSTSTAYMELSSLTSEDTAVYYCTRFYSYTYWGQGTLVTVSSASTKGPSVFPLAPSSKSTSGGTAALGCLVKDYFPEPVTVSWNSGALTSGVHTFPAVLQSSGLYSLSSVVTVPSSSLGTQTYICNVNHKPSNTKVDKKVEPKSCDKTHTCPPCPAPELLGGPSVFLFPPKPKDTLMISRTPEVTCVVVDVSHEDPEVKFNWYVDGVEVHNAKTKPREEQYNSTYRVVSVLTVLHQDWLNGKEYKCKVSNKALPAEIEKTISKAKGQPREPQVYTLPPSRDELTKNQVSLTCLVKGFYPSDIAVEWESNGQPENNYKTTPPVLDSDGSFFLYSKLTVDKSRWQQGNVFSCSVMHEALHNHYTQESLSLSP
light: B1 light
notes: also called B3 variant P331E
B12: GpH7-B3 L328T / GpL16-k0 (antibody, human IgG1, kappa)
heavy: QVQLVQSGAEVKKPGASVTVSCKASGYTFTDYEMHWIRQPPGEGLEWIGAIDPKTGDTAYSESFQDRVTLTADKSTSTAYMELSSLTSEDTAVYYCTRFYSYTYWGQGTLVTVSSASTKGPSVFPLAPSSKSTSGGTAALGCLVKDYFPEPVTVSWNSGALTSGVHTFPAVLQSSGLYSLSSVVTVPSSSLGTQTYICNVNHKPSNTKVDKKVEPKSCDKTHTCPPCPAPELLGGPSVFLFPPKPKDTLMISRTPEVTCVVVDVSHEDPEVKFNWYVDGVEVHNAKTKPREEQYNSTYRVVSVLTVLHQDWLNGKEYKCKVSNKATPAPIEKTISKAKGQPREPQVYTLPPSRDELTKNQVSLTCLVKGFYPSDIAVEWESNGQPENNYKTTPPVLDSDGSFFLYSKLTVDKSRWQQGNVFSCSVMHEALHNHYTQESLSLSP
light: B1 light
notes: also called B3 variant L328T

Biological target: T1, human FcγRIIaR extracellular domain, …
Assay: SPR (Biacore), 25C, FcgR bound per antibody captured
In the case of B1, the “Binding to human FcgRs (parent B3 = 100)” value is reported as 50. For B2, the “Binding to human FcgRs (parent B3 = 100)” value was 137. For B3, the “Binding to human FcgRs (parent B3 = 100)” value was 148. For B4, the “Binding to human FcgRs (parent B3 = 100)” value was 75. B5 was tested, and the “Binding to human FcgRs (parent B3 = 100)” value was 71. For B6, the “Binding to human FcgRs (parent B3 = 100)” value was 125. In the case of B7, the “Binding to human FcgRs (parent B3 = 100)” value is reported as 80. B8 was tested, and the “Binding to human FcgRs (parent B3 = 100)” value was 128. B9 was tested, and the “Binding to human FcgRs (parent B3 = 100)” value was 130. For B10, the “Binding to human FcgRs (parent B3 = 100)” value was 71. B11 was tested, and the “Binding to human FcgRs (parent B3 = 100)” value was 67. With B12 the “Binding to human FcgRs (parent B3 = 100)” value was 135.

These binders were tested against T2, human FcγRIIaH extracellular domain, … in the same assay as above.
For B1, the “Binding to human FcgRs (parent B3 = 100)” value was 38. For B2, the “Binding to human FcgRs (parent B3 = 100)” value was 169. B3 was tested, and the “Binding to human FcgRs (parent B3 = 100)” value was 128. For B4, the “Binding to human FcgRs (parent B3 = 100)” value was 82. In the case of B5, the “Binding to human FcgRs (parent B3 = 100)” value is reported as 79. B6 was tested, and the “Binding to human FcgRs (parent B3 = 100)” value was 176. B7 was tested, and the “Binding to human FcgRs (parent B3 = 100)” value was 99. With B8 the “Binding to human FcgRs (parent B3 = 100)” value was 136. With B9 the “Binding to human FcgRs (parent B3 = 100)” value was 152. With B10 the “Binding to human FcgRs (parent B3 = 100)” value was 99. With B11 the “Binding to human FcgRs (parent B3 = 100)” value was 96. With B12 the “Binding to human FcgRs (parent B3 = 100)” value was 156.

The binders below were run against T3, human FcγRIIb extracellular domain, … in the same assay as above.
B1 was tested, and the “Binding to human FcgRs (parent B3 = 100)” value was 55. For B2, the “Binding to human FcgRs (parent B3 = 100)” value was 174. For B3, the “Binding to human FcgRs (parent B3 = 100)” value was 156. For B4, the “Binding to human FcgRs (parent B3 = 100)” value was 108. For B5, the “Binding to human FcgRs (parent B3 = 100)” value was 107. In the case of B6, the “Binding to human FcgRs (parent B3 = 100)” value is reported as 283. With B7 the “Binding to human FcgRs (parent B3 = 100)” value was 124. For B8, the “Binding to human FcgRs (parent B3 = 100)” value was 130. B9 was tested, and the “Binding to human FcgRs (parent B3 = 100)” value was 252. For B10, the “Binding to human FcgRs (parent B3 = 100)” value was 114. B11 was tested, and the “Binding to human FcgRs (parent B3 = 100)” value was 100. With B12 the “Binding to human FcgRs (parent B3 = 100)” value was 179.

Each binder was assayed against T4, human FcγRIIIaV extracellular domain, His-tagged (human, UniProt P08637 17-208) in the same assay as above.
T4 construct: also called human FcgRIIIaV
T4 sequence (P08637 17-208 F176V): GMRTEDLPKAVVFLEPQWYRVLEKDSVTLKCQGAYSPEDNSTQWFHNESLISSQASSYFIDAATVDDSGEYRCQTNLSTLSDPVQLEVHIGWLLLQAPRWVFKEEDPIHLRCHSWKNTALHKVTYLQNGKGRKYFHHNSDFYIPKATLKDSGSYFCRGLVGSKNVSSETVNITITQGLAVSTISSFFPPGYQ
B1 was tested, and the “Binding to human FcgRs (parent B3 = 100)” value was 63. In the case of B2, the “Binding to human FcgRs (parent B3 = 100)” value is reported as 187. In the case of B3, the “Binding to human FcgRs (parent B3 = 100)” value is reported as 135. In the case of B4, the “Binding to human FcgRs (parent B3 = 100)” value is reported as 47. With B5 the “Binding to human FcgRs (parent B3 = 100)” value was 48. B6 was tested, and the “Binding to human FcgRs (parent B3 = 100)” value was 145. With B7 the “Binding to human FcgRs (parent B3 = 100)” value was 111. With B8 the “Binding to human FcgRs (parent B3 = 100)” value was 40. With B9 the “Binding to human FcgRs (parent B3 = 100)” value was 93. In the case of B10, the “Binding to human FcgRs (parent B3 = 100)” value is reported as 51. For B11, the “Binding to human FcgRs (parent B3 = 100)” value was 46. In the case of B12, the “Binding to human FcgRs (parent B3 = 100)” value is reported as 53.
